Test results taken from IntAct's records for PubMed 31515488.

B1: L-fucose dehydrogenase (Homo sapiens), Q9BPX1 (parent)
chain: MATGTRYAGKVVVVTGGGRGIGAGIVRAFVNSGARVVICDKDESGGRALEQELPGAVFILCDVTQEDDVKTLVSETIRRFGRLDCVVNNAGHHPPPQRPEETSAQGFRQLLELNLLGTYTLTKLALPYLRKSQGNVINISSLVGAIGQAQAVPYVATKGAVTAMTKALALDESPYGVRVNCISPGNIWTPLWEELAALMPDPRATIREGMLAQPLGRMGQPAEVGAAAVFLASEANFCTGIELLVTGGAELGYGCKASRSTPVDAPDIPS
B2: Rieske domain-containing protein (Homo sapiens), Q8TAC1 (parent)
chain: MNLDGSAQDPEKREYSSVCVGREDDIKKSERMTAVVHDREVVIFYHKGEYHAMDIRCYHSGGPLHLGDIEDFDGRPCIVCPWHKYKITLATGEGLYQSINPKDPSAKPKWCSKGIKQRIHTVTVDNGNIYVTLSNEPFKCDSDFYATGDFKVIKSSS
partner: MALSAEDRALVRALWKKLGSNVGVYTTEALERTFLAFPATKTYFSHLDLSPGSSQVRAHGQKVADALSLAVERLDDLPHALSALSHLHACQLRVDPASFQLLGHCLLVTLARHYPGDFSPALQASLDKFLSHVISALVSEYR
B3: E3 ubiquitin-protein ligase MARCHF5 (Homo sapiens), Q9NX47 (parent)
chain: MPDQALQQMLDRSCWVCFATDEDDRTAEWVRPCRCRGSTKWVHQACLQRWVDEKQRGNSTARVACPQCNAEYLIVFPKLGPVVYVLDLADRLISKACPFAAAGIMVGSIYWTAVTYGAVTVMQVVGHKEGLDVMERADPLFLLIGLPTIPVMLILGKMIRWEDYVLRLWRKYSNKLQILNSIFPGIGCPVPRIPAEANPLADHVSATRILCGALVFPTIATIVGKLMFSSVNSNLQRTILGGIAFVAIKGAFKVYFKQQQYLRQAHRKILNYPEQEEA

Variants of: B1
Conditions: with psa1_human PSMA1, P25786
Sequence of psa1_human PSMA1, P25786 (P25786 whole entry): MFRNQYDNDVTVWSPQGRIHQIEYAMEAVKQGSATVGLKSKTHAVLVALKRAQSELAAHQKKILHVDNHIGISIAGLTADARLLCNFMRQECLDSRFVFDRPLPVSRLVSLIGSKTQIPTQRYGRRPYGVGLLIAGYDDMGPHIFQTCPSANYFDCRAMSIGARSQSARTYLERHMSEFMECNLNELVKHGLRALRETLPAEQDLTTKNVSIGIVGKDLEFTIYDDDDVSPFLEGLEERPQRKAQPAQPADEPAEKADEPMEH

| effect of a mutation on the interaction | Variant |
| --- | --- |
| disrupting interaction strength | MATGTRYAGKVVVVTGGGRGIGAGIVRAFVNSGARVVICDKDESGGRALEQELPGAVFILCDVTQEDDVKTLVSETIRRFGRLDCVVNNAGHHPPPQRPEETSAQGFRQLLELNLLGTYTLTKLALPYLWKSQGNVINISSLVGAIGQAQAVPYVATKGAVTAMTKALALDESPYGVRVNCISPGNIWTPLWEELAALMPDPRATIREGMLAQPLGRMGQPAEVGAAAVFLASEANFCTGIELLVTGGAELGYGCKASRSTPVDAPDIPS [R130W] |

Variants of: B1
Conditions: with sr1ip_human SREK1IP1, Q8N9Q2
Sequence of sr1ip_human SREK1IP1, Q8N9Q2 (Q8N9Q2 whole entry): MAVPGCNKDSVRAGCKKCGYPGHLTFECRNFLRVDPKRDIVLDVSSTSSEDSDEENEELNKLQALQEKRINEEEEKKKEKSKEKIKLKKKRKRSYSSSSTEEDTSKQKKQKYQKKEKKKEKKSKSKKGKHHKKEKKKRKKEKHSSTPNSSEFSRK

| effect of a mutation on the interaction | Variant |
| --- | --- |
| disrupting interaction strength | MATGTRYAGKVVVVTGGGRGIGAGIVRAFVNSGARVVICDKDESGGRALEQELPGAVFILCDVTQEDDVKTLVSETIRRFGRLDCVVNNAGHHPPPQRPEETSAQGFRQLLELNLLGTYTLTKLALPYLWKSQGNVINISSLVGAIGQAQAVPYVATKGAVTAMTKALALDESPYGVRVNCISPGNIWTPLWEELAALMPDPRATIREGMLAQPLGRMGQPAEVGAAAVFLASEANFCTGIELLVTGGAELGYGCKASRSTPVDAPDIPS [R130W] |

Variants of: B1
Conditions: with ntaq1_human NTAQ1, Q96HA8

| effect of a mutation on the interaction | Variant |
| --- | --- |
| disrupting interaction strength | MATGTRYAGKVVVVTGGGRGIGAGIVRAFVNSGARVVICDKDESGGRALEQELPGAVFILCDVTQEDDVKTLVSETIRRFGRLDCVVNNAGHHPPPQRPEETSAQGFRQLLELNLLGTYTLTKLALPYLWKSQGNVINISSLVGAIGQAQAVPYVATKGAVTAMTKALALDESPYGVRVNCISPGNIWTPLWEELAALMPDPRATIREGMLAQPLGRMGQPAEVGAAAVFLASEANFCTGIELLVTGGAELGYGCKASRSTPVDAPDIPS [R130W] |

Variants of: B2
Conditions: with hbat_human HBQ1, P09105

| effect of a mutation on the interaction | Variant |
| --- | --- |
| disrupting interaction strength | D38A |

Variants of: B3
Conditions: with ube2w_human UBE2W

| effect of a mutation on the interaction | Variant |
| --- | --- |
| with no effect | MPDQALQQMLDRSCWVCFAADEDDRTAEWVRPCRCRGSTKWVHQACLQRWVDEKQRGNSTARVACPQCNAEYLIVFPKLGPVVYVLDLADRLISKACPFAAAGIMVGSIYWTAVTYGAVTVMQVVGHKEGLDVMERADPLFLLIGLPTIPVMLILGKMIRWEDYVLRLWRKYSNKLQILNSIFPGIGCPVPRIPAEANPLADHVSATRILCGALVFPTIATIVGKLMFSSVNSNLQRTILGGIAFVAIKGAFKVYFKQQQYLRQAHRKILNYPEQEEA [T20A] |
| with no effect | MPDQALQQMLDRSCWVCFATDEDDRTAEWVRPCRCRGSTKWVHQACLQRWVDEKQRGNSTARVACPQCNAEYLIVFPKLGPVVYVLDLADRLISKACPFAAAGIMVGSIYWTAVTYGAVTVMQVVGHKEGLDVMERADPLFLLIGLPTIPVMLILGKMIRWEDYVLRLWRKYSNKLQILNSIFPGIGCPVPRIPAEANPLANHVSATRILCGALVFPTIATIVGKLMFSSVNSNLQRTILGGIAFVAIKGAFKVYFKQQQYLRQAHRKILNYPEQEEA [D202N] |
